This experiment has as its target T1, GST-p53, purified, bacterially produced (UniProt P04637 1-393).
T1 construct: p53 tumor suppressor protein; also called p53-pGEX; purified p53; source: bacteria, from a pGEX construct, purified
The experiment can be described thus: pull-down; purified GST-p53 (or GST-c-Jun) incubated with purified His-IκBα in IP buffer (25 mM Hepes pH 7.5, 75 mM KCl, 2.5 mM MgCl2, 0.1 mM EDTA, 0.15% NP-40, 1 mM DTT); glutathione Sepharose beads; autoradiography of 32P-IκBα or Western blot for IκBα. The following applies: both partners purified.

T1 sequence (P04637 whole entry): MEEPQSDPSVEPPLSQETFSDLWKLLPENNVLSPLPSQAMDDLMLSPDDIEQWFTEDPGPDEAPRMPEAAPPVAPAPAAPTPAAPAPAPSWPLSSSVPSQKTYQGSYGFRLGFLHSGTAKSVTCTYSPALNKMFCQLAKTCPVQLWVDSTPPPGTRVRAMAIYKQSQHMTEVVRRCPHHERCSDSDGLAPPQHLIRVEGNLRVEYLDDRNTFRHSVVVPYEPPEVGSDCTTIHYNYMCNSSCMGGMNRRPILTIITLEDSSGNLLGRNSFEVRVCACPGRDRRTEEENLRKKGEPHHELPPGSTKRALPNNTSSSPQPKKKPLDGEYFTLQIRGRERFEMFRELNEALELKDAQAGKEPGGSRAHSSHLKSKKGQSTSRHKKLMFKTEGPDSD

B1: [32P]-labeled 6xHis-tagged IκBα (His-IκBα), phosphorylated in vitro by p90rsk (natural protein, UniProt P25963 1-317, looked up)
chain: MFQAAERPQEWAMEGPRDGLKKERLLDDRHDSGLDSMKDEEYEQMVKELQEIRLEPQEVPRGSEPWKQQLTEDGDSFLHLAIIHEEKALTMEVIRQVKGDLAFLNFQNNLQQTPLHLAVITNQPEIAEALLGAGCDPELRDFRGNTPLHLACEQGCLASVGVLTQSCTTPHLHSILKATNYNGHTCLHLASIHGYLGIVELLVSLGADVNAQEPCNGRTALHLAVDLQNPDLVSLLLKCGADVNRVTYQGYSPYQLTWGRPSTRIQQQLGQLTLENLQMLPESEDEESYDTESEFTEFTEDELPYDDCVFGGQRLTL
modifications: 32P-phosphate put on in vitro by p90rsk; site not stated
notes: IκBα, wild type; also called [^32P]-labeled IκBα; purified bacterially-produced wild-type IκBα; source: bacterially produced, purified; labeled in vitro with [γ-32P]ATP and Xenopus laevis p90rsk
For the molecule B1, the binding result is recorded as “binds”.

B2: 6xHis-tagged IκBα (His-IκBα), purified, bacterially produced (natural protein, UniProt P25963 1-317, looked up)
chain: B1 chain
notes: IκBα, wild type; also called purified IκBα protein; hexahistidine-tagged IκBα; source: bacterially produced, purified
With B2, the binding result is given as “binds”.

Values taken from publication PMC1184076, “Modulation of p53 activity by IκBα: Evidence suggesting a common phylogeny between NF-κB and p53 transcription factors” (BMC Immunology, 2005).
